From patent US9657059B2, “Immune system modulators” (Canimguide Therapeutics AB, priority 2013, dated 2017)

What follows are substances tested against P3028 (Homo sapiens, UniProt P02768) (assay: PEPSCAN rampo assay: binding of P3028 to support-bound peptides, sandwich ELISA). Conditions: binding of P3028 to peptide on solid phase.
From the text: Based on the ability of P28R to bind the P3028 sequence/structure, unblock the LFA-1 receptor, and ameliorate the P3028 sequence/structure-dependent immunosuppression, P28R was used as a template compound to identify additional compounds that bind to and sequester P3028. Variants of the P28R structure were synthesized, and tested for the ability to bind P3028 using PEPSCAN technology (see Example 12). A library of peptides that include each genetically-coded amino acid substitution at each amino acid position of P28R (i.e., 19 substitutions for each position) was synthesized. Each peptide was affixed to a support pin, and the peptide library was incubated with P3028. The binding of the candidate inhibitors to P3028 was detected by a sandwich ELISA, where a rabbit anti-mouse peroxidase (rampo) secondary antibody was employed (see Example 12). The binding of each peptide was then assigned a rampo score (see FIG. 27). Peptide P28R had rampo values ranging between about 262 and 460 with a mean value of 370. In some embodiments, the immunoregulatory peptide inhibitor as disclosed herein, is selected for a desired P3028 binding rampo score. In some embodiments, the desired P3028 binding rampo score is greater than or equal to the rampo score of P28R. It is also contemplated that some peptides that bind to P3028 with less affinity than P28R have therapeutic application. Some peptides with binding affinities that are less than P28R, for example, may modulate signal transduction events differently than P28R by virtue of the fact that the affinity to P3028 is less. […] Accordingly, contemplated embodiments include peptides that bind with any affinity to P3028 (e.g., any one or more of the peptides provided in Table 5.1, preferably peptides that modulate the immune system (e.g., modulate, upregulate or down regulate a marker of the immune system or immunosuppression, such as reducing a P3028-mediated inhibition of immune cell proliferation, spreading, migration, or NK-cell cytotoxicity).
It is contemplated that inhibitors of any one or more of the peptides listed in Tables 1-4 can comprise modifications of the P28R (SEQ ID NO: 2) or P28 core (SEQ ID NO: 62) sequence, and further can be useful for reducing inhibition of the LFA-1 receptor, or for stimulating immune cells. To identify modification to inhibitor peptides in accordance with some embodiments herein, positional scan data was used to study the influence of substitution of different types of amino acids in each position of P28R (SEQ ID NO: 2) on the binding of P3028 (SEQ ID NO: 185). Each amino acid in the peptide sequence of P28R (SEQ ID NO: 2) was exchanged with all of the naturally occurring amino acids, and binding of P3028 (SEQ ID NO: 185) to each peptide on a solid phase chip was assessed (see, e.g. Example 36). A number of optional modifications to P28R in accordance with embodiments herein are summarized in Tables 5.3, 5.4, 5.5, 5.6, and 13. Optionally, an inhibitor peptide in accordance with some embodiments herein can comprise one or more of the modifications of Table 5.3 or Table 13. Optionally, an inhibitor peptide comprises a central core of positions 2, 5-11, and 15 as provided in Table 5.3, and the remaining position are omitted or substituted with substantially any amino acid. Optionally, an inhibitor peptide comprises a central core of positions K2, T5-S11, and E15 of SEQ ID NO: 2, and the remaining position are omitted or substituted with substantially any amino acid.
Embodiments of the invention also include immunoregulatory peptide inhibitors that have a specific affinity to P3028 sequences or structures. In some embodiments, the immunoregulatory peptide inhibitors have specific affinity to P3028 sequences or structures as measured by a rampo assay in which the immunoregulatory peptide inhibitors are affixed to a solid phase, P3028 is added, and the enzymatic activity of a rampo secondary antibody is measured so as to detect binding (see Example 12). […]

Substance | RAMPO Score
391 (KKLDTFFVKLSLFTER) [compound 391] | 366
396 (KKLDTFFVKLSLFTER) [compound 396] | 460
398 (KKLDTFFVKLSLFTER) [compound 398] | 445
399 (KKLDTFFVKLSLFTER) [compound 399] | 442
400 (KKLDTFFVKLSLFTER) [compound 400] | 437
403 (KKLDTFFVKLSLFTER) [compound 403] | 428
406 (KKLDTFFVKLSLFTER) [compound 406] | 424
408 (KKLDTFFVKLSLFTER) [compound 408] | 414
414 (KKLDTFFVKLSLFTER) [compound 414] | 402
427 (KKLDTFFVKLSLFTER) [compound 427] | 377
428 (KKLDTFFVKLSLFTER) [compound 428] | 375
430 (KKLDTFFVKLSLFTER) [compound 430] | 371
442 (KKLDTFFVKLSLFTER) [compound 442] | 348
476 (KKLDTFFVKLSLFTER) [compound 476] | 319
487 (KKLDTFFVKLSLFTER) [compound 487] | 308
516 (KKLDTFFVKLSLFTER) [compound 516] | 260

What follows are substances tested on PBMCs from a healthy control (assay: PBMC activation (CD69, CD71) by flow cytometry in RPMI plus 10% human AB serum). Conditions: 40 μg/mL; 24 hours.
Format: cell-based
Description: FIG. 41 is a series of graphs illustrating effects of modified peptides on activation of PBMCs from healthy control person. PBMCs were incubated with the peptides (40 μg/mL) for 24 hours in RPMI plus 10% human AB serum. Activation is determined as percentage of cells with enhanced marker CD69 using flow cytometry. FIG. 41A illustrates results of two experiments (410 and 412) performed for each peptide. FIG. 41B illustrates results of two experiments (414 and 416) performed for each peptide.
FIG. 42 is a series of graphs illustrating effects of the full length peptide P28R and the 6 amino acid central sequence (32230, FFVKLS, SEQ ID NO: 62) in culture medium containing normal human AB serum. Activation is determined as percentage of cells with enhanced marker CD69 or CD71 using flow cytometry. PBMCs were incubated with the peptides (40 μg/mL) for 24 hours in RPMI plus 10% human AB serum. FIG. 42A illustrates the results of two experiments (420 and 422) performed for each peptide. FIG. 42B illustrates the results of two experiments (424 and 426) performed for each peptide.
FIG. 46 is a series of graphs illustrating Effect of modified peptides on activation of PBMCs from healthy control person. […] PBMCs were incubated with the peptides (40 μg/mL) for 48 hours in RPMI plus 10% human AB serum.
Based on the positional scan data, it is contemplated that substitutions of SEQ ID NO: 2 can be useful in accordance with some embodiments herein for binding P3028, de-blocking the LFA-1 receptor from P3028-mediated inhibition (e.g. displacing bound P3028 peptide and P3028-structure containing molecules from the LFA-1 receptor), and/or stimulating immune cells. The activity of peptide P28R (SEQ ID NO: 2) and modifications of P28R was studied in a human ex vivo model using PBMCs from a healthy control human in short term cultures, and with PBMC activation measured as a percentage of cells with enhanced CD69 (see Example 37).
As P28R (SEQ ID NO: 2) can bind to P3028 and stimulate PBMC's from healthy controls in short term cultures, for example when in a culture medium comprising RPMI plus 10% normal human AB serum (see Example 37), it is contemplated that truncations of P28R in accordance with some embodiments herein can be useful for binding to inhibitors of any one or more of the peptides listed in Tables 1-4. Truncations of P28R were assessed for their ability to activate PBMC's (see Example 38). PBMCs were incubated with the peptides (40 μg/mL) for 24 hours in RPMI plus 10% human AB serum. PBMC activation was measured as percent cells with enhanced expression of either CD69 (FIG. 42A) or CD71 (FIG. 42B) using flow cytometry. […] However, PBMCs were also incubated with the peptides in cancer sera from dogs, or in caner sera from human cancer patients (see FIG. 43). […] As such, it is contemplated that in accordance with some embodiments herein, P28R, P28 core, or combinations of these peptides are useful for stimulating immune cells in the serum of a subject that has cancer.
Effects of modified peptides on the activation of PBMCs from a healthy control person were assessed (see Example 41). PBMCs were incubated with the peptides (40 μg/mL) for 48 hours in RPMI plus 10% human AB serum, and PBMC activation was determined by flow cytometry based on the percentage of cells with enhanced marker CD69 or CD71. Peptides P28R (SEQ ID NO: 2), P28 core (peptide 32230) (SEQ ID NO: 62), 32251 ([…]) (SEQ ID NO: 592), 32814 ([…]) (SEQ ID NO: 586), 32815 ([…]) (SEQ ID NO: 595), 32665 ([…]) (SEQ ID NO: 593), and 32819 ([…](C(PEG24))) (SEQ ID NO: 594) were tested. […] Accordingly, it is contemplated herein that

Substance | PBMC activation, cells with enhanced CD69
KKLDTFFVDLSLFTER [compound 31138] | did not stimulate
KKLDTFFVKLSLFTFR [compound 30685] | did not stimulate
KKLDTFFVNLSLFTER [compound 31136] | did not stimulate
KSLDTFFVKLSLFTER [compound 30864] | did not stimulate

Each substance was assayed against P3028 (SEQ ID NO: 185) (Homo sapiens, UniProt P02768) (assay: PEPSCAN (rampo) ELISA: binding of His-tagged P3028 to P28R variants on chip). Conditions: binding of His-tagged P3028 0.5 μg/mL to chip-bound peptide, OD405 raw value.
Description: Based on the structure of peptide P28R, additional peptides were identified that bind to P3028. The additional binders included deletions, truncations, and or amino acid substitutions of peptide P28R. Binding of peptides to P3028 was assayed using PEPSCAN technology. PEPSCAN technology, or “rampo” assays are biochemical binding assays, details of which are provided below:
A peptide microarray screening technology was used to measure binding of P28R (SEQ ID NO: 2) and variants of P28R to P3028 (SEQ ID NO: 185). In this technology libraries of synthetic peptides are synthesized and covalently linked onto polypropylene microarray chips. The linear peptides were synthesized onto credit-card format polypropylene cards (455 peptide formats/card) as described by (Timmerman et al., 2004) using standard Fmoc-chemistry using hexamethylenediamine (HMDA) as linker and deprotection using trifluoroacetic acid (TFA) with scavengers.
The binding of His-tagged P3028 to each peptide on the card was tested in an ELISA assay. The 455-well credit card format polypropylene cards containing the covalently linked peptides were incubated with His-tagged P3028 peptide (PGE73) solution consisting of 0.5 μg/mL diluted in blocking solution (4% horse serum, 5% ovalbumin (w/v) in PBS/1% TWEEN reagent). After washing, the peptides were incubated with a monoclonal mouse anti-His-tag antibody (Novagen, 70796-3, diluted 1/1000 in the incubation buffer) and subsequently after washing with a rabbit-anti-mouse antibody peroxidase (Rampo) conjugate (Southern Biotech, 6175-05, diluted 1/1000), for one hour at 25° C. After washing, the peroxidase substrate 2,2′-azine-di-3-ethylbenzthiazoline sulfonate (ABTS) and 2 μL of 3% H2O2 were added. The binding capacity of the mAb was measured as a color development at 405 nm (optical density, OD405). The color development was quantified with a charge-coupled device (CCD)—camera and an image processing system.
The OD405-values obtained by a CCD-camera was considered as raw data values (“rampo values,” “rampo units,” or “rampo scores”). The values mostly ranged from 0 to 3000, a log scale similar to 1 to 3 of a standard 96-well plate ELISA-reader. First the CCD-camera made a picture of the card before peroxidase coloring and then again a picture after the peroxidase coloring. […] These values were copied into an excel file and labeled as a raw data file. One follow-up manipulation was allowed. Sometimes a well can contain an air-bubble resulting in a false-positive value. If manual inspection of the cards detect an air-bubble the value are set to 0 for that well.
A library of peptides tested for binding to peptide P3028 included all substitutions for each position of the peptide P28R (SEQ ID NO: 2) (i.e., 19 substitutions for each position). The results of the binding experiments are shown in FIGS. 27, 28, 29 and 30 and Table 5.1. […] P28R had rampo values ranging between 262 and 460 with a mean value of 370. […] In addition, M and S in position 7 (SEQ ID NOs: 9 and 10, respectively), and Q and M in position 11 (SEQ ID NOs: 15 and 16, respectively) all have rampo values over 700.
For each position of P28R, the rampo scores of the group of 19 different peptides containing an L-amino acid substitution were compared to the rampo score of a control sample P28R peptide (SEQ ID NO: 2) for that group. Single-amino acid substitutions having a rampo score greater than or substantially equivalent to P28R were identified. […]

Substance | RAMPO Score
391 (KKLDTFFVKLSLFTER) [compound 391] | 260

Same assay, conditions: truncations, deletions, glycine substitutions (FIG. 29, 30)

Substance | rampo score / binding to P3028 compared with P28R
KKFFVKLSLFTER [SEQ ID NO: 76] | comparable to, or higher than peptide P28R
KKLDTFFVKLSFTER [SEQ ID NO: 68] | comparable to, or higher than peptide P28R
KKLDTFVKLSLFTER [SEQ ID NO: 65] | comparable to, or higher than peptide P28R
KKLTFFVKLSLFTER [SEQ ID NO: 64] | comparable to, or higher than peptide P28R
